The values that follow come from patent US20140017240A1 (University of California, published 2014).

For assay [1], the target named is N-cadherin on the cell surface (PC3 cells and LNCaP N-cadherin transfected cells) (human) (UniProt P19022). Kind of assay: flow cytometry, phage clone on N-cadherin positive cells (cell line not stated). For orientation: A flow cytometer gives signals particle by particle.
For assay [2], the target named is T1, N-cadherin on the cell surface (PC3 cells and LNCaP N-cadherin transfected cells) (human, UniProt P19022 160-906).
T1 construct: whole, on cells; DU145 and untransfected LNCaP cells served as N-cadherin negative cells; also called cellular N-cadherin; cell surface N-cadherin
T1 sequence (looked up): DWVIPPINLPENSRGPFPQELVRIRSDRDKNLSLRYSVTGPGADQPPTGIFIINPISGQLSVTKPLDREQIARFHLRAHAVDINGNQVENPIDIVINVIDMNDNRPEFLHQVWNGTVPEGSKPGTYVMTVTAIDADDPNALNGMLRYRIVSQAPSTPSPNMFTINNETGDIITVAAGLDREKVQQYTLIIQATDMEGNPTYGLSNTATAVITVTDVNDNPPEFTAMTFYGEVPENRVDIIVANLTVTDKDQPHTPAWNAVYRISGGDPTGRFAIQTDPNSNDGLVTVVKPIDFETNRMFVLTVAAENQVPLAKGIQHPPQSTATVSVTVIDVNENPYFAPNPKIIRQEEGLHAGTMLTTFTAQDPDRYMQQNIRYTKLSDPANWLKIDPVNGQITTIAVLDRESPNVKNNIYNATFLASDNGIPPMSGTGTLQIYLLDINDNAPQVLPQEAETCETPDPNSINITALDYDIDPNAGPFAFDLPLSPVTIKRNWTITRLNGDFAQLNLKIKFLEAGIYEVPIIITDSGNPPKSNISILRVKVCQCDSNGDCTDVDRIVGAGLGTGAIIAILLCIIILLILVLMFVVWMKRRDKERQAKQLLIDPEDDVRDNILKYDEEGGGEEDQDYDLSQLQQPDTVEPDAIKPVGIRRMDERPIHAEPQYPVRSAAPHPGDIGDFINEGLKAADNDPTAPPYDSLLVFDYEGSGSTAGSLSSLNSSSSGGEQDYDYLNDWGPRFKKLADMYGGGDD
Kind of assay: flow cytometry, diabody at 2 ug/ml on PC3 cells.

Assay [3] deals with T1, N-cadherin on the cell surface (PC3 …). Kind of assay: flow cytometry, diabody on N-cadherin positive cells. The procedure: Flow cytometry was conducted to assess binding of phage antibody clones and diabodies to cellular N-cadherin. For phage antibody staining supernatant concentrated 20 times was used. Individual clones were grown in 20 ml 2TY to a density of 0.5 O.D_{600 nm} when phage were rescued with helper phages. After an overnight culture, monoclonal phage were harvested from the supernatant by precipitation with PEG/NaCl and resuspended in 1 ml PBS/1% BSA. For flow cytometry staining, 5×10⁵ cells were incubated for one hour on ice with 100 μl of 20×PEG concentrated phage antibody clone. Cells were washed in flow buffer (PBS 1% FBS, 1 mM EDTA, 0.02% Sodium azide) and the phage antibody clones detected with monoclonal anti-M13 antibody (Amersham Biosciences). Cells were washed and stained with R-PE congugated anti-mouse antibody. For diabody staining, 5×10⁵ cells were incubated for one hour on ice with the diabody at a 2 μg/ml concentration in flow buffer. Cells were washed and the diabody detected with 1/100 anti-c-Myc-biotin antibody in flow buffer. Cells were finally washed and stained with 1/40 Streptavidin-R-PE (SIGMA) in flow buffer.
The eleven individual phage clones selected by ELISA were tested for cell binding of N-cadherin positive cells (PC3 and LNCaP N-cadherin transfected cells) by flow cytometry. […]

The target of assay [4] is T2, N-cadherin extracellular domains one to three recombinant protein with GST tag (human) (UniProt P19022).
T2 sequence (looked up): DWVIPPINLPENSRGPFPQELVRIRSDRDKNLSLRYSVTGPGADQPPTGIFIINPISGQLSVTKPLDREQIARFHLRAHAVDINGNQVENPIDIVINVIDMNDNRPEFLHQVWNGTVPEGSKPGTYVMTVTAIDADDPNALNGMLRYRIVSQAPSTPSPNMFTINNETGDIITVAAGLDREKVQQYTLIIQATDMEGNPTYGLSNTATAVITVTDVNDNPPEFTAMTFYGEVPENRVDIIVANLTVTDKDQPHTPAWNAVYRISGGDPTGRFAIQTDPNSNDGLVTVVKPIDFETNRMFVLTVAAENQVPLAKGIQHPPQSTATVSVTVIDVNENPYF
Kind of assay: phage ELISA, plate coated with ECD1-3-GST. (An ELISA detects its analyte on a solid surface through an enzyme-linked reagent.)

In assay [5] the target is T3, N-cadherin extracellular domains one to three recombinant protein with 6 histidine tag (human) (UniProt P19022).
T3 sequence (looked up): T2 sequence (looked up)
Kind of assay: phage ELISA, plate coated with ECD1-3-6HIS.

Assay [6] has as its target T2, N-cadherin extracellular domains one to three recombinant protein with GST tag (human). Kind of assay: phage ELISA, second phage batch, plate coated with ECD1-3-GST.
Assay [7] addresses T3, N-cadherin extracellular domains one to three recombinant protein with 6 histidine tag (human). Kind of assay: phage ELISA, second phage batch, plate coated with ECD1-3-6HIS.
For assay [8], the target named is T4, N-cadherin extracellular domains one to three recombinant protein with 6 histidine tag (human, UniProt P19022 160-497).
T4 construct: range 160-497; Expressed in bacteria and purified from the periplasmic fraction on Ni-NTA; also called ECD1-3-6HIS; ECD1-3 6HIS; not shown: 6 histidine tag
T4 sequence (looked up): T2 sequence (looked up)
Kind of assay: phage ELISA.

B1: D4 phage antibody clone (scFv)
scFv: MAQVQLVQSGAEVKRPGASVRISCKASGYPFTTYPIHWVRQAPGQGLEWMGGINPNSGATKNVQKFQGRVTMTADTSIRTAYMELSRLTSDDTAVYYCARGEGDTGSYLGGYWGLGTLVTVSSGGGGSGGGGSGGGGSSELTQDPAVSVALGQTVRITCQGDSLRSYYASWYQQKPGRAPLLVIYGKNIRPSGIPDRFSGSSSGNSASLTITGAQAEDEADYYCNSRDRSGNYLFGVGTKVTVLG
B1 had a Flow Cytometry (MFI) in assay [1] of 0 MFI.

B2: D4 diabody (other)
chain: MAQVQLVQSGAEVKRPGASVRISCKASGYPFTTYPIHWVRQAPGQGLEWMGGINPNSGATKNVQKFQGRVTMTADTSIRTAYMELSRLTSDDTAVYYCARGEGDTGSYLGGYWGLGTLVTVSSGGGGSSELTQDPAVSVALGQTVRITCQGDSLRSYYASWYQQKPGRAPLLVIYGKNIRPSGIPDRFSGSSSGNSASLTITGAQAEDEADYYCNSRDRSGNYLFGVGTKVTVLG
notes: Diabody made from the scFv by shortening the linker; also called D4 Db; not shown: c-Myc and 6HIS tags from the pSyn1 vector
In the case of B2, in assay [2], the binding result was “binds”.

B3: A14 diabody (other)
chain: MAQVQLVQSGGGLAQPGGSLRLSCAASGFTFSRHAMIWVRQAPGKGLEWVSSISGSSDSTSYADSVKGRFTISRDNSKNTLYLQMNTLRAEDTAVYYCAKATGYSYYYGMDVWGPGTTVTVSSGGGGSDIQMTQSPSSLSASLGDRVTITCRASQGISNYLAWYQQKPGKAPKLLIYGATTLQHGVPSRFSGSGSGTDFSLTISSLQPEDFAIYFCQQAHSFPPTFGGGTKLEIKR
notes: Diabody (small bivalent antibody fragment) made from the scFv by shortening the linker from 15 to 5 a.a; also called A14 Db; not shown: c-Myc and 6HIS tags from the pSyn1 vector
As to B3, the binding result in assay [3] is recorded as “binds”.

B4: A8 phage antibody clone (truncated) (scFv)
scFv: MAQVQLQESGWYFDLWGRGTPVTVSSGGGGSGGGGSGGGGSEIVLTQSPSSLSASVGDRVTITCRASQGIRNDLGWYQQKPGKAPKLLIYAASSLQSGVPSRFSGSGSGTDFTLTISSLQPEDFATYYCLQDYNGWTFGQGTKVEIKR
As for B4, the 1st ELISA (O.D) in assay [4] worked out at 0.17 O.D; in assay [5] it was 0.25 O.D. Moreover, the 2nd ELISA (O.D) was 0.05 O.D in assay [6] and 0.11 O.D in assay [7]. In assay [1], the Flow Cytometry (MFI) amounted to 30 MFI.

B5: E4 diabody (other)
chain: MAQVQLVQSGAEVKKPGESLEISCKGSGYSFANNWIGWVRQMPGKGLEWMGSIYPGDSDVRYSRSFQGHVTISADKSISTAYLQWSSLKASDTAMYYCARHRVAYSGYDAFDIWGQGTMVTVSSGGGGSSVLTQDPAVSVALGQTVRITCQGDSLRSYYPSWYQQKPGQAPVLVIYGKNNRPSGIPDRFSGSSSGNTASLTITGAQAEDEADYYCHSRDRSGNQVLFGGGTKVTVLG
notes: Diabody made from the scFv by shortening the linker; also called E4 Db; not shown: c-Myc and 6HIS tags from the pSyn1 vector
Take B5: the binding result in assay [3] is given as “binds”.

B6: A14 ScFv phage antibody clone (scFv)
scFv: MAQVQLVQSGGGLAQPGGSLRLSCAASGFTFSRHAMIWVRQAPGKGLEWVSSISGSSDSTSYADSVKGRFTISRDNSKNTLYLQMNTLRAEDTAVYYCAKATGYSYYYGMDVWGPGTTVTVSSGGGGSGGGGSGGGGSDIQMTQSPSSLSASLGDRVTITCRASQGISNYLAWYQQKPGKAPKLLIYGATTLQHGVPSRFSGSGSGTDFSLTISSLQPEDFAIYFCQQAHSFPPTFGGGTKLEIKR
notes: Clone A1 was renamed A14; Selected on ECD4-6HIS; also called A14 (A1)
Consider B6, for which the binding result in assay [8] is on record as “no binding”.
